From US20140087995A1 (published 2014) come the findings set out here.

Test [1] addresses T1, human calcitonin receptor (human, UniProt P30988 25-474).
T1 sequence (looked up): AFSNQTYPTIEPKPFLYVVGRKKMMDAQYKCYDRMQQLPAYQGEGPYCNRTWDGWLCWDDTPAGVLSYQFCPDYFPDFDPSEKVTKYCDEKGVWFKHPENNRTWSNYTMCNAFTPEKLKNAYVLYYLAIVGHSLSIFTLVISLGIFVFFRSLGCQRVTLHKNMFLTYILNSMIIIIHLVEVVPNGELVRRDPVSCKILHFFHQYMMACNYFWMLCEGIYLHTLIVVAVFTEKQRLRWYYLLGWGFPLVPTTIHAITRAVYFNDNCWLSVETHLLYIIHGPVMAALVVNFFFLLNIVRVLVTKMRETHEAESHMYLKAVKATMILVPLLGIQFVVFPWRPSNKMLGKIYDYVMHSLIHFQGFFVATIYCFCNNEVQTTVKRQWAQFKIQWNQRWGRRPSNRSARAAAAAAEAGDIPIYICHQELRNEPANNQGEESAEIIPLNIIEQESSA
As to the kind of experiment: cell-based or functional assay.

Test [2] deals with T2, human amylin 3(a) receptor (human calcitonin receptor co-expressed with RAMP-3) (human, UniProt P30988 25-474; O60896 24-148, limits assumed).
T2 sequence (looked up) 1: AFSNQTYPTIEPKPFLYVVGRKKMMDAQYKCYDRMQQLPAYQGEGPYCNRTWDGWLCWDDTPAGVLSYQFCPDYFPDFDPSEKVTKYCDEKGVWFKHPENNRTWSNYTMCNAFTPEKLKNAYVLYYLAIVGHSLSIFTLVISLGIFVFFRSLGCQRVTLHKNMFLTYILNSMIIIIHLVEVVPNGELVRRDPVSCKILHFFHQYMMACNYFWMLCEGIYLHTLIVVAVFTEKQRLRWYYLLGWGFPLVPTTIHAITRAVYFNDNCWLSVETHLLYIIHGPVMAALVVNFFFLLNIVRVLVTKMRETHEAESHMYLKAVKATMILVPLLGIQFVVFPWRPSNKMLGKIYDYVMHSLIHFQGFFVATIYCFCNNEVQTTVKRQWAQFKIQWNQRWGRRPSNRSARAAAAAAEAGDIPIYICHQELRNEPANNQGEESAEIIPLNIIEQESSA
T2 sequence (looked up) 2: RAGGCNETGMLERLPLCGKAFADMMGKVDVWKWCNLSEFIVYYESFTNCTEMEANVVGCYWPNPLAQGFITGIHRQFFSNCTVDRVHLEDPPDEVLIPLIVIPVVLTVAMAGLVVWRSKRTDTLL
As to the kind of experiment: cell-based or functional assay.

Numbered stars: 1 amine (or outer) side, 2 acyl side, 3 side chain; on linkers, the order of the positions; unused ones are H or OH. Bridge positions count the residues as written; N and C are the ends. Side chains are listed from the residue outwards. Ends that are not written are not given here. * marks the point of attachment. C20 diacid = O=C(O)CCCCCCCCCCCCCCCCCCC(=O)*; C18 diacid = O=C(O)CCCCCCCCCCCCCCCCC(=O)*; C16 diacid = O=C(O)CCCCCCCCCCCCCCC(=O)*; γGlu = O=C(O)[C@H](CCC(=O)[*:2])N[*:1]; C14 diacid = O=C(O)CCCCCCCCCCCCC(=O)*

B1: N^ε1-[(4S)-4-carboxy-4-(13-carboxytridecanoylamino)butanoyl]-[Arg17,Pro21,Pro27,His34]-h-amylin (peptide)
peptide: K([γGlu-C14 diacid])CNTATCATQRLANFLRHSSPNFGAIPSSTNVGHNTY-NH2
modifications: disulfide 2-7; N-terminus assumed
SMILES: CC[C@H](C)[C@H](NC(=O)[C@H](C)NC(=O)CNC(=O)[C@H](Cc1ccccc1)NC(=O)[C@H](CC(N)=O)NC(=O)[C@@H]1CCCN1C(=O)[C@H](CO)NC(=O)[C@H](CO)NC(=O)[C@H](Cc1c[nH]cn1)NC(=O)[C@H](CCCNC(=N)N)NC(=O)[C@H](CC(C)C)NC(=O)[C@H](Cc1ccccc1)NC(=O)[C@H](CC(N)=O)NC(=O)[C@H](C)NC(=O)[C@H](CC(C)C)NC(=O)[C@H](CCCNC(=N)N)NC(=O)[C@H](CCC(N)=O)NC(=O)[C@@H](NC(=O)[C@H](C)NC(=O)[C@@H]1CSSC[C@H](NC(=O)[C@@H](N)CCCCNC(=O)CC[C@H](NC(=O)CCCCCCCCCCCCC(=O)O)C(=O)O)C(=O)N[C@@H](CC(N)=O)C(=O)N[C@@H]([C@@H](C)O)C(=O)N[C@@H](C)C(=O)N[C@@H]([C@@H](C)O)C(=O)N1)[C@@H](C)O)C(=O)N1CCC[C@H]1C(=O)N[C@@H](CO)C(=O)N[C@@H](CO)C(=O)N[C@H](C(=O)N[C@@H](CC(N)=O)C(=O)N[C@H](C(=O)NCC(=O)N[C@@H](Cc1c[nH]cn1)C(=O)N[C@@H](CC(N)=O)C(=O)N[C@H](C(=O)N[C@@H](Cc1ccc(O)cc1)C(N)=O)[C@@H](C)O)C(C)C)[C@@H](C)O
As for B1, in test [1], the “Ratio hCT/hAmylin funct.” value came to 38.8 and the “hCTR funct. EC50” value was determined as 1.09 nM. Moreover, the “hAmylin-R funct. EC50” value in test [2] was 0.028 nM.

B2: N^ε1-[(4S)-4-carboxy-4-(17-carboxyheptadecanoylamino)butanoyl]-[Arg17,Pro21,Pro27,His34]-h-amylin (peptide)
peptide: K([γGlu-C18 diacid])CNTATCATQRLANFLRHSSPNFGAIPSSTNVGHNTY-NH2
modifications: disulfide 2-7; N-terminus assumed
SMILES: CC[C@H](C)[C@H](NC(=O)[C@H](C)NC(=O)CNC(=O)[C@H](Cc1ccccc1)NC(=O)[C@H](CC(N)=O)NC(=O)[C@@H]1CCCN1C(=O)[C@H](CO)NC(=O)[C@H](CO)NC(=O)[C@H](Cc1c[nH]cn1)NC(=O)[C@H](CCCNC(=N)N)NC(=O)[C@H](CC(C)C)NC(=O)[C@H](Cc1ccccc1)NC(=O)[C@H](CC(N)=O)NC(=O)[C@H](C)NC(=O)[C@H](CC(C)C)NC(=O)[C@H](CCCNC(=N)N)NC(=O)[C@H](CCC(N)=O)NC(=O)[C@@H](NC(=O)[C@H](C)NC(=O)[C@@H]1CSSC[C@H](NC(=O)[C@@H](N)CCCCNC(=O)CC[C@H](NC(=O)CCCCCCCCCCCCCCCCC(=O)O)C(=O)O)C(=O)N[C@@H](CC(N)=O)C(=O)N[C@@H]([C@@H](C)O)C(=O)N[C@@H](C)C(=O)N[C@@H]([C@@H](C)O)C(=O)N1)[C@@H](C)O)C(=O)N1CCC[C@H]1C(=O)N[C@@H](CO)C(=O)N[C@@H](CO)C(=O)N[C@H](C(=O)N[C@@H](CC(N)=O)C(=O)N[C@H](C(=O)NCC(=O)N[C@@H](Cc1c[nH]cn1)C(=O)N[C@@H](CC(N)=O)C(=O)N[C@H](C(=O)N[C@@H](Cc1ccc(O)cc1)C(N)=O)[C@@H](C)O)C(C)C)[C@@H](C)O
B2: in test [1], the “Ratio hCT/hAmylin funct.” value is 60.9 and the “hCTR funct. EC50” value turned out to be 5.85 nM. Besides, in test [2], the “hAmylin-R funct. EC50” value turned out to be 0.096 nM.

B3: N^ε1-[(4S)-4-carboxy-4-(19-carboxynonadecanoylamino)butanoyl]-[Ala14,Arg17,Pro21,Pro27,His34]-h-amylin (peptide)
peptide: K([γGlu-C20 diacid])CNTATCATQRLAAFLRHSSPNFGAIPSSTNVGHNTY-NH2
modifications: disulfide 2-7; N-terminus assumed
SMILES: CC[C@H](C)[C@H](NC(=O)[C@H](C)NC(=O)CNC(=O)[C@H](Cc1ccccc1)NC(=O)[C@H](CC(N)=O)NC(=O)[C@@H]1CCCN1C(=O)[C@H](CO)NC(=O)[C@H](CO)NC(=O)[C@H](Cc1c[nH]cn1)NC(=O)[C@H](CCCNC(=N)N)NC(=O)[C@H](CC(C)C)NC(=O)[C@H](Cc1ccccc1)NC(=O)[C@H](C)NC(=O)[C@H](C)NC(=O)[C@H](CC(C)C)NC(=O)[C@H](CCCNC(=N)N)NC(=O)[C@H](CCC(N)=O)NC(=O)[C@@H](NC(=O)[C@H](C)NC(=O)[C@@H]1CSSC[C@H](NC(=O)[C@@H](N)CCCCNC(=O)CC[C@H](NC(=O)CCCCCCCCCCCCCCCCCCC(=O)O)C(=O)O)C(=O)N[C@@H](CC(N)=O)C(=O)N[C@@H]([C@@H](C)O)C(=O)N[C@@H](C)C(=O)N[C@@H]([C@@H](C)O)C(=O)N1)[C@@H](C)O)C(=O)N1CCC[C@H]1C(=O)N[C@@H](CO)C(=O)N[C@@H](CO)C(=O)N[C@H](C(=O)N[C@@H](CC(N)=O)C(=O)N[C@H](C(=O)NCC(=O)N[C@@H](Cc1c[nH]cn1)C(=O)N[C@@H](CC(N)=O)C(=O)N[C@H](C(=O)N[C@@H](Cc1ccc(O)cc1)C(N)=O)[C@@H](C)O)C(C)C)[C@@H](C)O
notes: also called compound 93
On to B3, for which, in test [1], the “Ratio hCT/hAmylin funct.” value was determined as 9.7 and the “hCTR funct. EC50” value was 1.15 nM. Besides, the “hAmylin-R funct. EC50” value in test [2] worked out at 0.118 nM.

B4: N^ε1-[(4S)-4-carboxy-4-(15-carboxypentadecanoylamino)butanoyl]-[Arg17,Pro21,Pro27,His34]-h-amylin (peptide)
peptide: K([γGlu-C16 diacid])CNTATCATQRLANFLRHSSPNFGAIPSSTNVGHNTY-NH2
modifications: disulfide 2-7; N-terminus assumed
SMILES: CC[C@H](C)[C@H](NC(=O)[C@H](C)NC(=O)CNC(=O)[C@H](Cc1ccccc1)NC(=O)[C@H](CC(N)=O)NC(=O)[C@@H]1CCCN1C(=O)[C@H](CO)NC(=O)[C@H](CO)NC(=O)[C@H](Cc1c[nH]cn1)NC(=O)[C@H](CCCNC(=N)N)NC(=O)[C@H](CC(C)C)NC(=O)[C@H](Cc1ccccc1)NC(=O)[C@H](CC(N)=O)NC(=O)[C@H](C)NC(=O)[C@H](CC(C)C)NC(=O)[C@H](CCCNC(=N)N)NC(=O)[C@H](CCC(N)=O)NC(=O)[C@@H](NC(=O)[C@H](C)NC(=O)[C@@H]1CSSC[C@H](NC(=O)[C@@H](N)CCCCNC(=O)CC[C@H](NC(=O)CCCCCCCCCCCCCCC(=O)O)C(=O)O)C(=O)N[C@@H](CC(N)=O)C(=O)N[C@@H]([C@@H](C)O)C(=O)N[C@@H](C)C(=O)N[C@@H]([C@@H](C)O)C(=O)N1)[C@@H](C)O)C(=O)N1CCC[C@H]1C(=O)N[C@@H](CO)C(=O)N[C@@H](CO)C(=O)N[C@H](C(=O)N[C@@H](CC(N)=O)C(=O)N[C@H](C(=O)NCC(=O)N[C@@H](Cc1c[nH]cn1)C(=O)N[C@@H](CC(N)=O)C(=O)N[C@H](C(=O)N[C@@H](Cc1ccc(O)cc1)C(N)=O)[C@@H](C)O)C(C)C)[C@@H](C)O
Regarding B4, in test [1], the “Ratio hCT/hAmylin funct.” value was 65.1 and the “hCTR funct. EC50” value is 2.21 nM. The “hAmylin-R funct. EC50” value in test [2] came to 0.034 nM.
